Data from PMC12416549 (2024).

T1: TNFR1 (Homo sapiens, UniProt P19438)
T1 chain: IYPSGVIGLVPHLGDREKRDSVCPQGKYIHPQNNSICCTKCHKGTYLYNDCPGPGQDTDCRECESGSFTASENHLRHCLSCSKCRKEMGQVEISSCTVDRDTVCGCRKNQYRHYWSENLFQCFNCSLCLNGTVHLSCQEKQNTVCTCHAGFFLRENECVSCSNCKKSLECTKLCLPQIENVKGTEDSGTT


Target: T1, TNFR1
Experiment: yeast display SC50

Row | apparent Kd (screen) [pM] | Binder
1 | 1050 | L12D (designed binder) MTLQELLREEADRRAEAEAFRYALELLAEKFPEQKEYLLDLAEEIESQIRSLSGVDVEDVRKFLDKEWAWVKELLAEHPAELAEVEAARAARLAELRAEVEAKVAA
2 | 869 | V85Q (designed binder) MTLQELLREEALRRAEAEAFRYALELLAEKFPEQKEYLLDLAEEIESQIRSLSGVDVEDVRKFLDKEWAWVKELLAEHPAELAEQEAARAARLAELRAEVEAKVAA
3 | 12500 | L64T (designed binder) MTLQELLREEALRRAEAEAFRYALELLAEKFPEQKEYLLDLAEEIESQIRSLSGVDVEDVRKFTDKEWAWVKELLAEHPAELAEVEAARAARLAELRAEVEAKVAA
4 | 3300 | G54R (designed binder) MTLQELLREEALRRAEAEAFRYALELLAEKFPEQKEYLLDLAEEIESQIRSLSRVDVEDVRKFLDKEWAWVKELLAEHPAELAEVEAARAARLAELRAEVEAKVAA
5 | 1540 | L24A (designed binder) MTLQELLREEALRRAEAEAFRYAAELLAEKFPEQKEYLLDLAEEIESQIRSLSGVDVEDVRKFLDKEWAWVKELLAEHPAELAEVEAARAARLAELRAEVEAKVAA
6 | 653 | P32N (designed binder) MTLQELLREEALRRAEAEAFRYALELLAEKFNEQKEYLLDLAEEIESQIRSLSGVDVEDVRKFLDKEWAWVKELLAEHPAELAEVEAARAARLAELRAEVEAKVAA
7 | 790 | E18C (designed binder) MTLQELLREEALRRAEACAFRYALELLAEKFPEQKEYLLDLAEEIESQIRSLSGVDVEDVRKFLDKEWAWVKELLAEHPAELAEVEAARAARLAELRAEVEAKVAA
8 | 539 | A98L (designed binder) MTLQELLREEALRRAEAEAFRYALELLAEKFPEQKEYLLDLAEEIESQIRSLSGVDVEDVRKFLDKEWAWVKELLAEHPAELAEVEAARAARLAELRLEVEAKVAA
9 | 26900 | L64W (designed binder) MTLQELLREEALRRAEAEAFRYALELLAEKFPEQKEYLLDLAEEIESQIRSLSGVDVEDVRKFWDKEWAWVKELLAEHPAELAEVEAARAARLAELRAEVEAKVAA
10 | 539 | E5W (designed binder) MTLQWLLREEALRRAEAEAFRYALELLAEKFPEQKEYLLDLAEEIESQIRSLSGVDVEDVRKFLDKEWAWVKELLAEHPAELAEVEAARAARLAELRAEVEAKVAA
11 | 539 | Q34L (designed binder) MTLQELLREEALRRAEAEAFRYALELLAEKFPELKEYLLDLAEEIESQIRSLSGVDVEDVRKFLDKEWAWVKELLAEHPAELAEVEAARAARLAELRAEVEAKVAA
12 | 790 | K72W (designed binder) MTLQELLREEALRRAEAEAFRYALELLAEKFPEQKEYLLDLAEEIESQIRSLSGVDVEDVRKFLDKEWAWVWELLAEHPAELAEVEAARAARLAELRAEVEAKVAA
13 | 2250 | L12G (designed binder) MTLQELLREEAGRRAEAEAFRYALELLAEKFPEQKEYLLDLAEEIESQIRSLSGVDVEDVRKFLDKEWAWVKELLAEHPAELAEVEAARAARLAELRAEVEAKVAA
14 | 2480 | W68S (designed binder) MTLQELLREEALRRAEAEAFRYALELLAEKFPEQKEYLLDLAEEIESQIRSLSGVDVEDVRKFLDKESAWVKELLAEHPAELAEVEAARAARLAELRAEVEAKVAA
15 | 1400 | E9R (designed binder) MTLQELLRREALRRAEAEAFRYALELLAEKFPEQKEYLLDLAEEIESQIRSLSGVDVEDVRKFLDKEWAWVKELLAEHPAELAEVEAARAARLAELRAEVEAKVAA
16 | 869 | V85Y (designed binder) MTLQELLREEALRRAEAEAFRYALELLAEKFPEQKEYLLDLAEEIESQIRSLSGVDVEDVRKFLDKEWAWVKELLAEHPAELAEYEAARAARLAELRAEVEAKVAA
17 | 539 | A23R (designed binder) MTLQELLREEALRRAEAEAFRYRLELLAEKFPEQKEYLLDLAEEIESQIRSLSGVDVEDVRKFLDKEWAWVKELLAEHPAELAEVEAARAARLAELRAEVEAKVAA
18 | 653 | E25Y (designed binder) MTLQELLREEALRRAEAEAFRYALYLLAEKFPEQKEYLLDLAEEIESQIRSLSGVDVEDVRKFLDKEWAWVKELLAEHPAELAEVEAARAARLAELRAEVEAKVAA

Row | apparent Kd (screen) [pM] | Binder
19 | 956 | L74M (designed binder) MTLQELLREEALRRAEAEAFRYALELLAEKFPEQKEYLLDLAEEIESQIRSLSGVDVEDVRKFLDKEWAWVKEMLAEHPAELAEVEAARAARLAELRAEVEAKVAA
20 | 4390 | L38C (designed binder) MTLQELLREEALRRAEAEAFRYALELLAEKFPEQKEYCLDLAEEIESQIRSLSGVDVEDVRKFLDKEWAWVKELLAEHPAELAEVEAARAARLAELRAEVEAKVAA
21 | 5840 | A28E (designed binder) MTLQELLREEALRRAEAEAFRYALELLEEKFPEQKEYLLDLAEEIESQIRSLSGVDVEDVRKFLDKEWAWVKELLAEHPAELAEVEAARAARLAELRAEVEAKVAA
22 | 490 | E84P (designed binder) MTLQELLREEALRRAEAEAFRYALELLAEKFPEQKEYLLDLAEEIESQIRSLSGVDVEDVRKFLDKEWAWVKELLAEHPAELAPVEAARAARLAELRAEVEAKVAA
23 | 718 | R21C (designed binder) MTLQELLREEALRRAEAEAFCYALELLAEKFPEQKEYLLDLAEEIESQIRSLSGVDVEDVRKFLDKEWAWVKELLAEHPAELAEVEAARAARLAELRAEVEAKVAA
24 | 869 | R13K (designed binder) MTLQELLREEALKRAEAEAFRYALELLAEKFPEQKEYLLDLAEEIESQIRSLSGVDVEDVRKFLDKEWAWVKELLAEHPAELAEVEAARAARLAELRAEVEAKVAA
25 | 3000 | K62P (designed binder) MTLQELLREEALRRAEAEAFRYALELLAEKFPEQKEYLLDLAEEIESQIRSLSGVDVEDVRPFLDKEWAWVKELLAEHPAELAEVEAARAARLAELRAEVEAKVAA
26 | 869 | L64F (designed binder) MTLQELLREEALRRAEAEAFRYALELLAEKFPEQKEYLLDLAEEIESQIRSLSGVDVEDVRKFFDKEWAWVKELLAEHPAELAEVEAARAARLAELRAEVEAKVAA
27 | 718 | R92D (designed binder) MTLQELLREEALRRAEAEAFRYALELLAEKFPEQKEYLLDLAEEIESQIRSLSGVDVEDVRKFLDKEWAWVKELLAEHPAELAEVEAARAADLAELRAEVEAKVAA
28 | 593 | E99W (designed binder) MTLQELLREEALRRAEAEAFRYALELLAEKFPEQKEYLLDLAEEIESQIRSLSGVDVEDVRKFLDKEWAWVKELLAEHPAELAEVEAARAARLAELRAWVEAKVAA
29 | 1160 | L39C (designed binder) MTLQELLREEALRRAEAEAFRYALELLAEKFPEQKEYLCDLAEEIESQIRSLSGVDVEDVRKFLDKEWAWVKELLAEHPAELAEVEAARAARLAELRAEVEAKVAA
30 | 869 | E58R (designed binder) MTLQELLREEALRRAEAEAFRYALELLAEKFPEQKEYLLDLAEEIESQIRSLSGVDVRDVRKFLDKEWAWVKELLAEHPAELAEVEAARAARLAELRAEVEAKVAA
31 | 2050 | F20Y (designed binder) MTLQELLREEALRRAEAEAYRYALELLAEKFPEQKEYLLDLAEEIESQIRSLSGVDVEDVRKFLDKEWAWVKELLAEHPAELAEVEAARAARLAELRAEVEAKVAA
32 | 490 | E46S (designed binder) MTLQELLREEALRRAEAEAFRYALELLAEKFPEQKEYLLDLAEEISSQIRSLSGVDVEDVRKFLDKEWAWVKELLAEHPAELAEVEAARAARLAELRAEVEAKVAA
33 | 11400 | L7A (designed binder) MTLQELAREEALRRAEAEAFRYALELLAEKFPEQKEYLLDLAEEIESQIRSLSGVDVEDVRKFLDKEWAWVKELLAEHPAELAEVEAARAARLAELRAEVEAKVAA
34 | 16700 | L38Q (designed binder) MTLQELLREEALRRAEAEAFRYALELLAEKFPEQKEYQLDLAEEIESQIRSLSGVDVEDVRKFLDKEWAWVKELLAEHPAELAEVEAARAARLAELRAEVEAKVAA
35 | 1270 | V71T (designed binder) MTLQELLREEALRRAEAEAFRYALELLAEKFPEQKEYLLDLAEEIESQIRSLSGVDVEDVRKFLDKEWAWTKELLAEHPAELAEVEAARAARLAELRAEVEAKVAA
